± gives the half width of the 95% confidence interval.
Experiments:
[1] = folding stability dG unfold (combined trypsin and chymotrypsin); higher = more stable
Method in brief: (§1)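 How resistant each design was to proteolysis was captured as K50, inferred by Bayesian fitting of sequencing counts. Unfolding free energy was then derived relative to a sequence-predicted unfolded-state K50 and a shared folded-state K50, per protease or combined. Digestion used trypsin and chymotrypsin at 11 threefold-diluted concentrations plus a no-protease condition, on mini-proteins under 80 residues without cysteine in a PA-tagged cDNA display construct. Designs were kept only when AlphaFold2 dimer inter-PAE was above 15.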

[2] = folding stability dG unfold from chymotrypsin proteolysis; higher = more stable
Method in brief: as §1

[3] = folding stability dG unfold from trypsin proteolysis; higher = more stable
Method in brief: as §1

Sequence	folding stability dG unfold [1] [kcal/mol]	folding stability dG unfold [2] [kcal/mol]	folding stability dG unfold [3] [kcal/mol]
SATIEIPIKVNDRKFRISIERMPDGWIKIQIRDPNMPKDAVKDALREILGPGWKIDTDPETNTIYIPFKSAG [r14_370_TrROS]	2.67 ± 0.059	2.77 ± 0.027	2.41 ± 0.061
SATKEIEIEVNGRKLRIRIERKEDGSIKITIELPGMSAEEVKEALRKLLPPDAKITVDEITVTEYREEPSAG [r14_370_TrROS_Hall]	2.84 ± 0.3	2.43 ± 0.17	3.14 ± 0.17
SATREIELPGKKITIHHNPGNNMFRITIYDPKPGKPVEIPIPANNPGMTMENIIDQIREAAKKGRPVRISAG [r14_157_TrROS]	0.885 ± 0.082	0.671 ± 0.079	0.85 ± 0.036
SATTTLNLSSVEELKELVEKLIAEGNPEATLTVTLYPPSGESSTKSFSSVEEVIEELKKGPASVTITVTSSA [r9_589_JUSTAS]	2.56 ± 0.049	2.7 ± 0.022	2.18 ± 0.045
SATVTLVSVEKEGDKTTVTTRDPSGYTVTVTNPDGSIVLAPIPAEGAEAAIAAIKAAHPGVTVTLEAAASAG [r14_528_JUSTAS]	1.15 ± 0.11	1.24 ± 0.031	0.617 ± 0.036
SAVEIEFWFPGGMSVEEFVNEFSKILPGLRDVDIGVEPYPETDMWKVTATIRIVPPPSPEDQEEMQKNKSAG [r14_645_TrROS]	1.62 ± 0.1	1.7 ± 0.051	1.38 ± 0.07
SAVELPPDASITAVTVDPSGSRTVEVEVKTTTAYVYDPATGTTTTVPPGVRTVVTLPADVPVTVSFTSPSAG [r14_385_JUSTAS]	0.413 ± 0.085	0.484 ± 0.084	0.252 ± 0.099
SAVINIEAWFPPGKSVEEAVDEAKNIIHQFGFEIDDVDVERDPNGWVRVDFTIKIKPPMPPEQRKKLQDSAG [r14_110_TrROS]	2.45 ± 0.26	2.91 ± 0.091	1.25 ± 0.051
SAVIPLEELARKVAEELGLEPVEVLEVIPEEGVVVMRFEGAVIVVKVDPETGEAEVEIVVFDPETGKPVSAG [r14_270_TrMRF]	3.16 ± 0.085	3.35 ± 0.063	2.82 ± 0.11
SAVITYPIPDDKPTLILEPLPGSESLLILSTKREKIPNGTYKVEALVVRYEPALGASVEEKVELIEPIGSAG [r14_591_JUSTAS]	-0.239 ± 0.22	-0.216 ± 0.56	-0.819 ± 0.46
SAVPLELPLSDEELRELLEKHSVDSTITLTLKVGDRWVRVTVTLKEVKREPNRLSVSVELTVTPLPPEESAG [r14_335_JUSTAS]	3.81 ± 0.13	4.08 ± 0.051	2.86 ± 0.07
SAVPLSEEELEALLEEKAKEKAEEILKENPELPPGAVIKIKVEYEQEVVLEDKVEPVKYEREVEYKVPLSAG [r14_486_JUSTAS]	-0.0614 ± 0.44	-0.503 ± 0.76	0.00158 ± 0.12
SAVVLKEPGPVTTVVTTDPATGVTTTVTTDPSAGTTTVTTTDPASAAVTTTTYTTLPDGTPVPTTTTTPASA [r9_1073_JUSTAS]	1.05 ± 0.038	0.86 ± 0.032	1.22 ± 0.031
SAWIPAKEIAKYLAKELQEKMPHPGMKIPVDVETNPEENYVRVDIDIEHPGDGGKWKFEIYIPPGDTIVSAG [r14_849_TrROS]	1.29 ± 0.12	1.8 ± 0.095	0.664 ± 0.038
SAWNFKIEEVEVDPNDGRIWFTVKIPPNNPELAEEIAEELQDYGIKVKLINPDLPPGQTIIVQIEVKDPSAG [r14_354_TrROS]	1.83 ± 0.18	2.09 ± 0.18	1.3 ± 0.096
SAWYIIKIEIYNPGQNEPIASHTFMVPEEDLDAFKEKIADQFGMNPGWQIKVEIQPIPPVRDKDGEWKWSAG [r14_297_TrROS]	1.91 ± 0.086	2.13 ± 0.077	1.54 ± 0.036
SAYKITIKITITDPVTGETTTITVELISSEEEAKKEAEKLAASYPGKKVTIDLVEVVPVPPLSEEELKLSSA [r9_421_JUSTAS]	2.43 ± 0.12	2.68 ± 0.054	1.91 ± 0.081
SDALKNIPFEIVEIDPPPPDRPIPAGGTVRITVYNPLTPGQPFTFDVRFIPGEGTLIAEIGGLPVEIPIGSA [r9_243_TrMRF]	2.94 ± 0.12	3.46 ± 0.082	2.53 ± 0.079
SDEDLEILRVEATPDTIRILFKIPSNPDLYIEVPITVFEDETSRRILINARILRPETGEVIAEIPFEIPLSA [r9_18_TrMRF]	3.78 ± 0.24	4.24 ± 0.13	3.53 ± 0.16
SDKVEIWIPIPDGFWVRIKYDKPGKREITIWMPEDNPEFRKHGSMDQFIKHLARKLGLDPDKVKVDMYPMSA [r9_401_TrROS]	3.69 ± 0.14	4.11 ± 0.098	3.13 ± 0.1
SDLDPNSTLVFSAPFPVSDPDALLEHAETVARELGPDVRVERVVFDPNTPNVAVVEVSVPGGTVTLVYSRSA [r9_1079_TrMRF]	1.33 ± 0.062	1.36 ± 0.061	1.24 ± 0.017

Sequence	folding stability dG unfold [1] [kcal/mol]	folding stability dG unfold [2] [kcal/mol]	folding stability dG unfold [3] [kcal/mol]
SDNFQPDMTFPVTEIGDDKVTMKYNGKPYYIPTSKITSPNVTVKITDGTVSEVSSPSPSPLPPENIKKLSSA [r9_842_JUSTAS]	-0.263 ± 0.42	-0.293 ± 0.35	-0.705 ± 0.24
SDPDAKLLPATFTFRDPLTGEEVTVEVTVYETSGYLLAPAKVTVTLPTKPRTLTATLLVDENGNVHLFVSSA [r9_1015_TrMRF]	3.73 ± 0.17	4.31 ± 0.08	2.82 ± 0.2
SDPILEILKDAFQEFGIPVQVSIEPDPDGKRVIPIRIMSPKDMDENGMKMQEQTFPIKVNGKKWRVEISWSA [r9_489_TrROS]	1.41 ± 0.11	1.31 ± 0.14	1.45 ± 0.084
SDPNKPWTAEEIAKIIEEKILEEFDVEEIIPKELKVFPKEGTVKVKMLVKYKGEPGKYFELEVEISPEELSA [r9_1002_TrMRF]	2.52 ± 0.081	2.9 ± 0.038	1.58 ± 0.037
SDWHYIQIPFEITFKAPPEQARQFVEDLAENLGITDINVDNIEYDPNNGEVKVKVSISIMIPPPPPPEDDSA [r9_918_TrROS]	2.73 ± 0.2	3.36 ± 0.12	2.36 ± 0.15
SDYYIINIKIEVYYDGKPVREIPIFILVPPEQALMIAETIAEMLPGYKVKIKINVYRIPEDDPELREAFGSA [r9_782_TrROS]	2.93 ± 0.18	3.26 ± 0.044	2.31 ± 0.077
SEAEEAARKLAEELGLEVEVVEVDEETGTVTVRVRFEDEPTVTITITFDEETGELTVTIEVRPPPPPPPESA [r9_1119_TrROS_Hall]	3.72 ± 0.43	3.51 ± 0.54	3.49 ± 0.23
SEAEIKIKEVDENGYLVLEIKVPKEEVEKLREKLKELFPNAEIVEVKYDEETGEVTIIVRLPDGKLYEFKSA [r9_1164_TrROS_Hall]	1.06 ± 0.13	1.05 ± 0.099	1.05 ± 0.076
SEDTVTIEVRAFPVKDKNGKPRFYVSIEFGNGPVSYPIPGLPEGMKEGETFTIEIPPENIKKVDISIMPYSA [r9_769_TrROS]	1.97 ± 0.19	2.09 ± 0.1	2.09 ± 0.12
SEEEIEERIKKLAEELGFKVTEIKIEKTDNKLTVTVTITLPNGKKLTFTVTRDKNGKLTFTPEQLKKALKSA [r9_85_TrROS_Hall]	3.21 ± 0.07	3.609 ± 0.022	2.36 ± 0.038
SEEEIVEEPPPETRTLTLELVDPETGELVATITVSPDGTVTLTVRTPDGEEKTITVPEGMSLEEALAAALSA [r9_346_TrROS_Hall]	4.18 ± 0.45	4.39 ± 0.24	3.19 ± 0.21
SEEEYLVIEVEFEVENPEEAREFAERLARELPLDEIESLEVEVEPREVFVEGEPVGPVYRFRVRAVVRPRSA [r9_605_TrMRF]	2.77 ± 0.079	2.98 ± 0.048	2.62 ± 0.069
SEEPVEERDIVVKPGEEVKLELPEEPETVRVYVFNEDGELIEEREFPPGATPEELEGLKLPPGAVVRIVRSA [r9_215_TrROS_Hall]	2.2 ± 0.045	2.54 ± 0.029	1.32 ± 0.036
SEFPESVPVDWVERELTFSSSSKEELEKKIKELLKNIEIEVSYDPKTNKYTLKIKFPSKEKAEKVEELLSSA [r9_764_JUSTAS]	2.96 ± 0.14	3.268 ± 0.026	2.22 ± 0.067
SEKPEFKIVKIEVVEVDEDGKTVKVRVVVEGPDGRLYEVEMTLEELKKLLEELGIDLEDIKPGDVIVIPPSA [r9_1078_TrROS_Hall]	3.58 ± 0.15	3.09 ± 0.073	3.75 ± 0.11
SEKPEVTIKIEVEEREDGYLVVRVEVTFPEDPEKVELTLEMSREEAEELAKKLAEELPGVKVKVEIVELPSA [r9_374_TrROS_Hall]	2.44 ± 0.14	2.4 ± 0.17	2.41 ± 0.17
SEKVKITIEVWRPPGWWYVKIKLPDNGQEITYPFDSAEDFKEQIKKWLGLPPDNVKITDVEVYPMPPDDFSA [r9_909_TrROS]	2.52 ± 0.22	3.14 ± 0.081	1.82 ± 0.11
SELEDMTPEQLRERIRELLEELREERPGEEVEITIEELLERLPGMSREQLAEILGLTEEELENRTITIRASA [r9_525_TrROS_Hall]	2.35 ± 0.14	2.47 ± 0.085	2.08 ± 0.11
SELVEKAAEKGVKEIHIYLSEEQREAILKAADAGVKITIHLPEGATVEELKALPGIKVDKVEVFSPEELKSA [r9_671_TrROS_Hall]	0.0735 ± 0.14	-0.078 ± 0.082	0.273 ± 0.044
SENKPVTVLVNVTKNEDGTYTARVFVFDENGKLLAEEEVEAPLEKAVELVEALKKAYPNAKVVAVFTEGLSA [r9_374_TrMRF]	4.67 ± 0.2	4.81 ± 0.21	3.63 ± 0.23
SENPVLKNRPLPVVGTTERTSVAKPGESLDVKELPSNGIVATTPDGSTVGITVTVDANGNVLSLEIKPDPSA [r9_1195_JUSTAS]	0.164 ± 0.12	0.272 ± 0.069	0.00583 ± 0.068

From the supplement of paper PMC12764529
